Molecular target: mouse TR3 (mouse) (UniProt Q925D8)
Test: flow cytometry on ConA-activated murine CD8+ T-cells, control stain

UniProt Q925D8, sequence (Q925D8 whole entry): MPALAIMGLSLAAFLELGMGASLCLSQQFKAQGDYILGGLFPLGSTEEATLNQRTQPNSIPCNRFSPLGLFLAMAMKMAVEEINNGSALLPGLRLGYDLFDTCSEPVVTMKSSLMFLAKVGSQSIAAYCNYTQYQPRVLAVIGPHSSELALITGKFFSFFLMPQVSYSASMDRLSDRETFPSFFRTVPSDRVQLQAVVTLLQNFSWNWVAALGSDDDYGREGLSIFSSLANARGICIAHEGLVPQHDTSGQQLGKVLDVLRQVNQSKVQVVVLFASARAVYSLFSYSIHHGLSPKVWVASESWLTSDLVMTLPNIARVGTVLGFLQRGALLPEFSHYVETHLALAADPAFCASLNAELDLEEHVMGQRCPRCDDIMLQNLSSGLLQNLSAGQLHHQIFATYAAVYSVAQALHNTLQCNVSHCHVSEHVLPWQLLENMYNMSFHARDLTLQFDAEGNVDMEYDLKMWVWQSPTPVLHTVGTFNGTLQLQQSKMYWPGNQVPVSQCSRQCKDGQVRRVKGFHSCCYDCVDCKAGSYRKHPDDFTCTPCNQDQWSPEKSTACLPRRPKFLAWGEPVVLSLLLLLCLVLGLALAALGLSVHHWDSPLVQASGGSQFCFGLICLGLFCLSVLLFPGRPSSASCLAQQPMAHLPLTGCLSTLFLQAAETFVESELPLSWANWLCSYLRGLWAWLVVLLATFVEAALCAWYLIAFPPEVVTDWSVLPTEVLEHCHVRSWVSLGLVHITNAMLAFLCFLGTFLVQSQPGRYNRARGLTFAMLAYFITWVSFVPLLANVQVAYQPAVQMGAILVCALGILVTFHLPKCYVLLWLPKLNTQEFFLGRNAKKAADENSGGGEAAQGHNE

percent of cells within the marker-1 (M1, unstained) region: 99%
Substance: normal (non-immune) rat serum (antibody)

From US6994976
